pKd: −log10 of the molar value. “And” between values parts separate entries of the source, which are not always exact repeats. Equal entries are not always repeated.
Columns and labels:
KLHDC10(41-C)-EloB/C = KLHDC10(41-C)-EloB/C (UniProt Q6PID8); test: SPR; Biacore T200; 10xHis-KLHDC10-EloB/C captured on a Ni-NTA chip; UB variants as analytes, 2 uM to 0.125 uM; 25 mM Tris, 200 mM NaCl, 0.1% Tween20, pH 7.4, 20 °C; multi-cycle kinetics, 1:1 binding model; two replicates
[1] = molecular target: KLHDC10^41-C-EloB/C with a 10X Histidine tag on EloC (SPR) (UniProt Q6PID8); test: SPR; Biacore T200; His-tagged KLHDC10 complex captured on Ni-NTA chip (about 300 RU); ubiquitin variants as analytes 2 uM to 0.125 uM, multi-cycle kinetics; 25 mM Tris, 200 mM NaCl, 0.1% Tween20, pH 7.4; 20 °C; 1:1 binding model

Question: What does the source list for “ubiquitin (from UniProt P0CG48 1-76) (natural protein)”?
Answer: pKd (KLHDC10(41-C)-EloB/C): 6.50 and 6.41; pKd [1]: 6.52
